Measurements as given in US20240207313A1.

Columns and labels:
[1] = biological target: T-cell surface glycoprotein CD4 [Homo sapiens] (Homo sapiens) (UniProt P01730); assay: cell-based or functional assay
[2] = biological target: T-cell receptor with TCR Vbeta 7.1 chain (H. sapiens rearranged TCR Vbeta 7.1) (H. sapiens); assay: cell-based or functional assay
Sequence of T-cell receptor with TCR Vbeta 7.1 chain (H. sapiens rearranged TCR Vbeta 7.1) (H. sapiens) (A0A577 whole entry, form in doubt): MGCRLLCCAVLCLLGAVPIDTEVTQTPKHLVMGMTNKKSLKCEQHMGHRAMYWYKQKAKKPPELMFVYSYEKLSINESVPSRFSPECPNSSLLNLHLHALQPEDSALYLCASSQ

CART20 anti-CD20 chimeric antigen receptor (scFv of monoclonal antibody Leu16 in the third-generation CAR backbone), expressed on transduced human T cells
CD4-positive cells remaining in the culture after CAR transduction (flow cytometry) [1]: 45%
TCR Vβ7.1-positive cells remaining five days after CAR transduction (flow cytometry) [2]: 1.2%
